Source: patent publication US11932845B2, “Microorganisms and methods for production of 4-hydroxybutyrate, 1,4-butanediol and related compounds” (priority 2012, dated 2024)

Columns and labels:
[1] = system: branched chain alpha-ketoacid decarboxylase (BCKA); details: decarboxylation; cited from earlier work
[2] = system: D(−)-lactate dehydrogenase from L. leichmanii; details: compared with that on pyruvate; cited from earlier work
[3] = molecular target: T1, L(+)-lactate dehydrogenase from rabbit muscle (Oryctolagus cuniculus, UniProt P13491); details: compared with that on pyruvate; cited from earlier work
T1 construct: host or cells: rabbit muscle

[4] = system: L(+)-lactate dehydrogenase from A. eutrophus; details: compared with that on pyruvate; cited from earlier work
[5] = molecular target: T2, phosphotransbutyrylase (ptb) (Clostridium acetobutylicum, UniProt P58255); test: PTB enzyme activity, butyryl-CoA to butyryl-phosphate, DTNB; type: biochemical, C. acetobutylicum; details: extracts of cells with pZA33-0020-0021
T2 sequence (P58255 whole entry, looked up): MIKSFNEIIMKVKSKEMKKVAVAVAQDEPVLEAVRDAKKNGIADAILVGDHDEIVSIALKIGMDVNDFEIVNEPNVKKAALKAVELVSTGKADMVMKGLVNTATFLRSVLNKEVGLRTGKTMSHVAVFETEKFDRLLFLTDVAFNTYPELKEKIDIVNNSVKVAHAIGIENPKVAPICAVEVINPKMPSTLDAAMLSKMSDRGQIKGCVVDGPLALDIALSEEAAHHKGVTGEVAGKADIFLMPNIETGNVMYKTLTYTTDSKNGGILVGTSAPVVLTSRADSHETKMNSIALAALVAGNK
Method: The enzyme activity of PTB is measured in the direction of butyryl-CoA to butyryl-phosphate as described in Cary et al. J. Bacteriol. 170:4613-4618 (1988). It provides inorganic phosphate for the conversion, and follows the increase in free CoA with the reagent 5,5′-dithiobis-(2-nitrobenzoic acid), or DTNB. DTNB rapidly reacts with thiol groups such as free CoA to release the yellow-colored 2-nitro-5-mercaptobenzoic acid (TNB), which absorbs at 412 nm with a molar extinction coefficient of 14,140 M cm^−1. The assay buffer contained 150 mM potassium phosphate at pH 7.4, 0.1 mM DTNB, and 0.2 mM butyryl-CoA, and the reaction was started by addition of 2 to 50 μL cell extract. The enzyme activity of BK is measured in the direction of butyrate to butyryl-phosphate formation at the expense of ATP. The procedure is similar to the assay for acetate kinase previously described Rose et al., J. Biol. Chem. 211:737-756 (1954). […] This assay links conversion of ATP to ADP by acetate kinase to the linked conversion of ADP and phosphoenolpyruvate (PEP) to ATP and pyruvate by pyruvate kinase, followed by the conversion of pyruvate and NADH to lactate and NAD+ by lactate dehydrogenase. […] The reaction was started by adding 2 to 50 μL cell extract, and the reaction was monitored based on the decrease in absorbance at 340 nm indicating NADH oxidation.

BDO pathway = type: cell-based, E. coli; details: host ECKh-432 with aldehyde dehydrogenase; 23G needle
[6] = system: 4-HB to BDO conversion pathway; test: Production of BDO from 10 mM 4-HB in recombinant E. coli strains; details: for BDO: adhE2 in pZE13
Method: For the BDO production experiments, cat2 from Porphyromonas gingivalis W83 (gene 0034) was included on pZA33 for the conversion of 4-HB to 4-HB-CoA, while the candidate dehydrogenase genes were expressed on pZE13. The host strain was MG1655 lacI^Q. Along with the alcohol and aldehyde dehydrogenase candidates, we also tested the ability of CoA-dependent succinic semialdehyde dehydrogenases (sucD) to function in this step, due to the similarity of the substrates. Cells were grown to an OD of about 0.5 in LB medium supplemented with 10 mM 4-HB, induced with 1 mM IPTG, and culture broth samples taken after 24 hours and analyzed for BDO as described below.
Finally, the construct was tested for participation in the conversion of 4-HB to BDO. Host strains were transformed with the pZA33-0020-0021 construct described and pZE13-0002, and compared to use of cat2 in BDO production using the aerobic procedure used above in FIG. 5.

O=C(O)CCC(=O)C(=O)O [2-Oxoglutarate]
activity relative to activity on other branched-chain substrates [1]: 5% | Activity (%) of D(−)-lactate dehydrogenase from L. leichmanii [2]: 0.0% | Activity (%) of L(+)-lactate dehydrogenase from rabbit muscle [3]: 0.0% | Activity (%) of L(+)-lactate dehydrogenase from A. eutrophus [4]: 79.6%

B1: PTB: phosphotransbutyrylase (ptb) from C. acetobutylicum, gene 0020 (protein, UniProt P58255 1-301, looked up)
Phosphate butyryltransferase: T2 sequence (P58255 whole entry, looked up)
specific activity of PTB [5]: approximately 5 U/mg

B2: 0034: Gene ID 0034, cat2, Porphyromonas gingivalis W83, 4-hydroxybutyrate coenzyme A transferase (protein, listed as Porphyromonas gingivalis)
chain: MKDVLAEYASRIVSAEEAVKHIKNGERVALSHAAGVPQSCVDALVQQADLFQNVEIYHMLCLGEGKYMAPEMAPHFRHITNFVGGNSRKAVEENRADFIPVFFYEVPSMIRKDILHIDVAIVQLSMPDENGYCSFGVSCDYSKPAAESAHLVIGEINRQMPYVHGDNLIHISKLDYIVMADYPIYSLAKPKIGEVEEAIGRNCAELIEDGATLQLGIGAIPDAALLFLKDKKDLGIHTEMFSDGVVELVRSGVITGKKKTLHPGKMVATFLMGSEDVYHFIDKNPDVELYPVDYVNDPRVIAQNDNMVSINSCIEIDLMGQVVSECIGSKQFSGTGGQVDYVRGAAWSKNGKSIMAIPSTAKNGTASRIVPIIAEGAAVTTLRNEVDYVVTEYGIAQLKGKSLRQRAEALIAIAHPDFREELTKHLRKRFG
BDO and GBL levels (BDO pathway): significantly higher than 2021n | BDO/OD ([6]; Host Strain MG1655 lacI^Q): 0.042 | BDO ([6]; Host Strain MG1655 lacI^Q, aerobic procedure): 0.827 µM | BDO/OD ([6]; Host Strain MG1655 ΔadhE lacI^Q): 0.166 | BDO ([6]; Host Strain MG1655 ΔadhE lacI^Q, aerobic procedure): 2.084 µM | BDO produced ([6]; with pZE13-0002, aerobic procedure): 2 mM
